From publication PMC9861681, “Preparation, Purification and Characterization of Antibacterial and ACE Inhibitory Peptides from Head Protein Hydrolysate of Kuruma Shrimp, Marsupenaeus japonicus” (Molecules, 2023)

Assays:
[1] = molecular target: T1, angiotensin I-converting enzyme (ACE, EC 3.4.15.1) from rabbit lung (rabbit, UniProt P12822 34-1310); test: cell-based or functional assay
T1 sequence (looked up): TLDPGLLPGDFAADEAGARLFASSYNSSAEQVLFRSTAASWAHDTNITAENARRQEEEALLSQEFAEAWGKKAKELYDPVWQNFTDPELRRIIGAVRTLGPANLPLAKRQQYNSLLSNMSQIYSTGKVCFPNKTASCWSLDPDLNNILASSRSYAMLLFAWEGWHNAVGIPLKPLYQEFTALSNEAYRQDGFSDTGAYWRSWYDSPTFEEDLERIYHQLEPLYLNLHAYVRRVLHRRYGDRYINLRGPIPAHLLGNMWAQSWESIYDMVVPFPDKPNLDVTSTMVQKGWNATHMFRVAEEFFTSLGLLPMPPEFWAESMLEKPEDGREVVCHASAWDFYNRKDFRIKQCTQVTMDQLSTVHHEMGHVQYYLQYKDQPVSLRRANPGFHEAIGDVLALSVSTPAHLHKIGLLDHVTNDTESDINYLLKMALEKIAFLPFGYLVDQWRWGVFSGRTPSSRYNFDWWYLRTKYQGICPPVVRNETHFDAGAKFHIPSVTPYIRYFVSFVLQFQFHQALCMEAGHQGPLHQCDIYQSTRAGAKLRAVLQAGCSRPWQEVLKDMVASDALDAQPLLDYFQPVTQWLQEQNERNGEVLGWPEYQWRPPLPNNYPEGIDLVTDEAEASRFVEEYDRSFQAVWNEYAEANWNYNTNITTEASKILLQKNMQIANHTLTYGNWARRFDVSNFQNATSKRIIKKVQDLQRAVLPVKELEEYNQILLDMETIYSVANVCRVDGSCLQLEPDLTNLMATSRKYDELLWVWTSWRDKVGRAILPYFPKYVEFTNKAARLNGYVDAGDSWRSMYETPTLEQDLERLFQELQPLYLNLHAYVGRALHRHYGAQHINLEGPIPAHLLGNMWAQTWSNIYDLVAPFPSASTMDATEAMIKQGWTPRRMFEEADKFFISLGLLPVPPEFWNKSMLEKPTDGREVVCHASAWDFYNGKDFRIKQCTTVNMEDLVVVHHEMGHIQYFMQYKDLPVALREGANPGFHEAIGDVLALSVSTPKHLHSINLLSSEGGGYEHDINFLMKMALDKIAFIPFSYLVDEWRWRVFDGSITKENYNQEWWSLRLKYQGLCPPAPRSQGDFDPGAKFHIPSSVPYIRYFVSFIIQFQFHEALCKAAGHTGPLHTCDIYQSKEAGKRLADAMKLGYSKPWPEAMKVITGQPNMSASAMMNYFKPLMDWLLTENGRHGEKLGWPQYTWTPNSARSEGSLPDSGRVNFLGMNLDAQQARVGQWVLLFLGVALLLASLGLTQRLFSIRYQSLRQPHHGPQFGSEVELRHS

[2] = molecular target: T1, angiotensin I-converting enzyme (ACE, …); test: cell-based or functional assay; remark: listed apart in the source

- IC50 of ACE inhibitory activity, calculated from the molecular mass of ARL/I and Table 2 [1]: 126 µM
- IC50 of ACE inhibitory activity (HHL substrate, hippuric acid at 228 nM) [2]: 45 µg/mL
Binder: ARL [ACE inhibitory peptide Ala-Arg-Leu/Ile (ARL/I)]
